Results on eight molecules are retold here after patent US20080261201A1, “Methods and compounds to alter virus infection” (priority 2006, published 2008).

Where two headings read alike, the source gives them in different places.

Assay [1] relates to AAV2. Put plainly: AAV2 (AV2Luc) transduction of HeLa cells, luciferase activity. Type of assay: cell-based. Particulars: for inhibition of AAV2 transduction: DPI 10 μM. The method, then: (§1) Recombinant type-2 adeno-associated viruses encoding luciferase (AV2Luc) or factor VIII (AV2FVIII) transgenes were used for infection of different cell types. HeLa and IB3 cells were cultured in DMEM supplemented with 10% fetal bovine serum (FBS) and antibiotics. Nox 1 and Nox2 knockout and wild-type (wt) littermate control mouse dermal fibroblasts were generated from newborn mice as described in Bosu et al. (2001) and below. For all infections, viruses were applied to cells in serum-free DMEM, and an equal volume of 20% FBS/DMEM was added at 2 hours post-infection.
(§2) In studies evaluating viral entry, cells were incubated with 1,000 particles/cell of AV2FVIII at 4° C. for 30 minutes prior to removing virus, washing cells, and shifting cells to 37° C. Cells were then incubated for the indicated times and postnuclear supernatants (PNS) were prepared for analysis of intracellular AAV2. Taqman PCR was used to quantify the abundance of viral genomes in different subcellular fractions following infection using primer sets and methods described in Ding et al. (2006). When proteasome inhibitors were added to induce AAV2 transduction, LLnL (Boston Biochem, Cambridge, Mass.) and/or doxorubicin (Calbiochem, San Diego, Calif.), were present in the medium at concentrations of 40 μM and 5 μM, respectively. Modulation of endosomal ROS was achieved by adding 1 mg/mL of purified bovine Cu/Zn superoxide dismutase (Cu/ZnSOD) (Oxis Research, Portland, Oreg.) and/or catalase (Sigma-Aldrich, St. Louis, Mo.) to the medium which was then applied to cells 20 minutes prior to viral infections unless indicated otherwise. SOD and/or catalase remained in the medium during infection unless otherwise indicated.

In assay [2] the test system is AAV2. Particulars: Sanlioglu et al., 2004; 1999; cited from earlier work.
Assay [3] deals with T1, AAV2 capsid (Adeno-associated virus 2, UniProt P03135). The following applies: following 100 nM H2O2 treatment; data not shown.
In assay [4] the target is T1, AAV2 capsid. Particulars: 100 nM H2O2.
Description: Subtle changes in capsid structure of the virion following heat denaturation or exposure to H2O2 was assayed using MALDI-TOF mass spectrometry following trypsin digestion. Briefly, 10^10 AAV2 particles were treated with H2O2 (which was then removed by dialysis for 1 hour against 20 mM Tris, 20 mM NaCl, pH 8.0) or heated to 70° C. as described above and then incubated with 500 ng of porcine trypsin in 25 mM NH4HCO3 (pH 8.0) at 37° C. for 16 hours. The digested products were then sequentially incubated with 10 mM DTT and 55 mM of iodoacetamide to reduce and modify cysteine residues. 1/20 of the original sample was assayed on a Bruker Biflex III MALDI-TOF MS. For the analysis of cysteine modification, the theoretical m/z values of peptides containing individual cysteines were predicted without modification, with iodoacetamide modification, and with different oxidative (sulfenic, sulfinic, or sulfonic) modifications. Spectra were evaluated using ExPASy (http://us.expasy.org/tools/peptide-mass.html) and compared to the theoretical spectra for various VP proteins.
For another assay, the target named is AAV2 capsid PLA2 (Adeno-associated virus 2, UniProt P03135). The procedure: 10^10 purified AV2FVIII virions were treated with various conditions to activate PLA2 activity in the capsid of purified virions. This included pre-incubation of virus with various concentration of H2O2 for 15 minutes at 37° C. or partial heat denaturation at 70° C. for 2 minutes. Catalase was added to virus treated with H2O2 at the end of the treatment period to scavenge H2O2 prior to the PLA2 activity assay. PLA2 activity of virions was determined by the release of radioactive fatty acid from L-3-phosphatidylcholine (PC), 1,2-di[1-^14C]oleoyl using the protocol described by Zadori et al. (2001).

Assay [5] has as its system AAV2. Put plainly: AAV2 (AV2Luc) transduction of IB3 cells, luciferase activity. It counts as cell-based. The method, then:
as §1
(§3) In studies evaluating the efficiency of viral transduction, AV2Luc virus was used at a multiplicity of infection (MOI) equal to 1,000 particles/cell, and luciferase activity was measured at 24 hours post-infection. In studies evaluating viral entry, cells were incubated with 1,000 particles/cell of AV2FVIII at 4° C. for 30 minutes prior to removing virus, washing cells, and shifting cells to 37° C. Cells were then incubated for the indicated times and postnuclear supernatants (PNS) were prepared for analysis of intracellular AAV2. Taqman PCR was used to quantify the abundance of viral genomes in different subcellular fractions following infection using primer sets and methods described in Ding et al. (2006). […]

For the next assay, the target named is T2, NADPH oxidase (Homo sapiens, UniProt P04839).
T2 construct: endogenous in cells; host or cells: iodixanol-fractionated endosomal (vesicular) fractions of HeLa and IB3 cells after AAV2 infection
Put plainly: NADPH-dependent superoxide production in endosomal (vesicular) fractions, lucigenin-based assay. Type of assay: biochemical. Particulars: HeLa cells; 20 minutes following infection; catalase 1 mg/mL.

For assay [6], the system named is AAV2. The assay can be described thus: Virion endosomal escape assay (30% iodixanol cushion) in HeLa cells. The following applies: 1 hour following infection, catalase loading. It counts as cell-based. The procedure: A protocol using a 30% iodixanol cushion was developed to separate AAV2 virions in the cytoplasm from those inside endosomes. Briefly, HeLa cells were incubated with 1,000 particles/cell of AAV2 at 4° C. for 30 minutes before removing virus, washing cells, and shifting cells to 37° C. Cells were then incubated for the indicated times and PNS were prepared. A total volume of 500 μl PNS was then loaded on the top of 250 μl 30% iodixanol, followed by centrifugation at 100,000×g for 1 hour. Viral genome within the supernatant and pellet were quantified by real-time PCR.

Assay [7] concerns AAV2. Put plainly: Viral uptake/accumulation, viral genomes quantified by Taqman PCR, HeLa cells. It counts as cell-based. The method, then: as §2, with “In studies evaluating the efficiency of viral transduction, AV2Luc virus was used at a multiplicity of infection (MOI) equal to 1,000 particles/cell, and luciferase activity was measured at 24 hours post-infection. In” for “In”
For orientation: Quantitative PCR measures a nucleic acid by following its amplification.

For assay [8], the system named is AAV2. Put plainly: AAV2 (AV2Luc) transduction of Nox1/Nox2 WT and KO primary mouse dermal fibroblasts (PMDF). It counts as cell-based. The following applies: catalase 1 mg/ml. The procedure: as §1, §3
Setting [9] is: HeLa cells, antimycin A 10 μM, L-NMMA 5 mM, rotenone 2 nM, 16 hours post-infection.

Sequence of AAV2 capsid PLA2 (P03135 whole entry): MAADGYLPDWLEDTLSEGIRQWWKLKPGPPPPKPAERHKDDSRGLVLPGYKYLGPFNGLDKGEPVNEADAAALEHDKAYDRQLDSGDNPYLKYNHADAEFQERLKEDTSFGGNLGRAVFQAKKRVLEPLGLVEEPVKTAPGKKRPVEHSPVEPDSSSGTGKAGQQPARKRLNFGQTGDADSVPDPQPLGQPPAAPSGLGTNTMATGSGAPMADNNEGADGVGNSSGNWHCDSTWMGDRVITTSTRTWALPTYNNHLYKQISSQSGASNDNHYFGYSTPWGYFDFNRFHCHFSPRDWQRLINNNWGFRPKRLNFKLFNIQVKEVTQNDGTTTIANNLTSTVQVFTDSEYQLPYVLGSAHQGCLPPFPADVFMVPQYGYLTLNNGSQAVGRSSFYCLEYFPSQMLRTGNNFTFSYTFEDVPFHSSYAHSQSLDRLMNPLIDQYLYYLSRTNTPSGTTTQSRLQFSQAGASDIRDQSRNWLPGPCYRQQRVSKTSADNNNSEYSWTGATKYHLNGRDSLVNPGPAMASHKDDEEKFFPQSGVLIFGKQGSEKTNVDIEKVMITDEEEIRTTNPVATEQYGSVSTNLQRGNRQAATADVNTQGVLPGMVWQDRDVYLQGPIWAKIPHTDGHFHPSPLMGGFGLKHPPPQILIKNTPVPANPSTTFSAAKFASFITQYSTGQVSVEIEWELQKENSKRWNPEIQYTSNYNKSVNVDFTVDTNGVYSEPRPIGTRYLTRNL
Sequence of AAV2 capsid PLA2 (P03135 1-598 isoform P03135-2 partner): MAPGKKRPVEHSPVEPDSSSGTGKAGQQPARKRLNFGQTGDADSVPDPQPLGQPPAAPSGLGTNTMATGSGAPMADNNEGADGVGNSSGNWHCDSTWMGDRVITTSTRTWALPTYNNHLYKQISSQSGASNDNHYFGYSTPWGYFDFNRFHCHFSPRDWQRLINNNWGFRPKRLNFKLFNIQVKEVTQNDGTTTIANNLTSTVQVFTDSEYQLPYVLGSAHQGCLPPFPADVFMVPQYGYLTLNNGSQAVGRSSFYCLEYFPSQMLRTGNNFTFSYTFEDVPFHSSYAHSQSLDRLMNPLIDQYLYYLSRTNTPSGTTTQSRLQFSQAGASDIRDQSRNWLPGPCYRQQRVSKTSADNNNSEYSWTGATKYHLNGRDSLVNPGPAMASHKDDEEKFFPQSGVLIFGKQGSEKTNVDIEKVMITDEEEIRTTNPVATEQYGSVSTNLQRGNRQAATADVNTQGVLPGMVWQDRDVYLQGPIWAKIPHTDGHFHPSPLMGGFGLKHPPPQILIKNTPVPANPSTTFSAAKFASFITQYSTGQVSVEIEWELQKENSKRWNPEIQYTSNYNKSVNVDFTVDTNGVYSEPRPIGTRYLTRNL
Sequence of AAV2 capsid PLA2 (P03135 203-735 partner limits assumed): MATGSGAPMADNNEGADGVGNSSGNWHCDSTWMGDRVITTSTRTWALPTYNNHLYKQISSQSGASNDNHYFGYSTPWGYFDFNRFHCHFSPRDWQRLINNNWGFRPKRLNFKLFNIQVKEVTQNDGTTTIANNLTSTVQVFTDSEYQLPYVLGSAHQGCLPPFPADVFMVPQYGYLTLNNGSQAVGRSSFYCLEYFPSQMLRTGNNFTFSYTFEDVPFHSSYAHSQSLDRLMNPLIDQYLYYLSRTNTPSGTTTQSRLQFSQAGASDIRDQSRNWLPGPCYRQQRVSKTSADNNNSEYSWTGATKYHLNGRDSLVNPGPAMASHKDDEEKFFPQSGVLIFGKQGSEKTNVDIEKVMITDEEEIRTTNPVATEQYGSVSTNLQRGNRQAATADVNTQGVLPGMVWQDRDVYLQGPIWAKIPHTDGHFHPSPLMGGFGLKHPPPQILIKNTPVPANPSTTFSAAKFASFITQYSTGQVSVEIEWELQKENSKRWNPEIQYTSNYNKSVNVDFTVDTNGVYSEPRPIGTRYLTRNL
T1 sequence (P03135 whole entry): as the sequence (P03135 whole entry) above
T1 sequence (P03135 1-598 isoform P03135-2): as the sequence (P03135 1-598 isoform P03135-2 partner) above
T1 sequence (P03135 203-735): as the sequence (P03135 203-735 partner limits assumed) above
Description for NADPH oxidase: Vesicular fractionation was performed using a previously described protocol (Li et al., 2006b) with minor modifications. Briefly, cells were harvested by scraping and washing twice in 4° C. phosphate-buffered saline (PBS). Cells were then pelleted and resuspended on ice in 1 mL of pre-cooled (4° C.) homogenization buffer (0.25 M sucrose, 10 mM triethanolamine, 1 mM EDTA, 1 mM PMSF, and 100 μg/mL aprotinin) and homogenized using a nitrogen decompression vessel (Parr Instrument, Moline, Ill.). Methods for generating PNS, iodixanol isolation of vesicular fractions, sample collection, quality control, and Nox activity assays were performed as described in Li et al. (2006b).
In brief, vesicular fractions were confirmed by Western blot to contain known endosomal Rab proteins and be devoid of markers for plasma membrane and mitochondria. Nox activities were analyzed by measuring the rate of .O2— generation using a chemiluminescent, lucigenin-based system. […] The reaction was initiated by the addition of 100 μM of NADPH (Sigma-Aldrich, St. Louis, Mo.) and changes in luminescence were measured over the course of 3 min (5 readings/sec). The slope of the luminescence curve (relative light units [RLU] per minute) (r>0.95) was used to calculate the rate of .O2^− formation as an index of NADPH oxidase activity.

For “SOD1: purified bovine Cu/Zn superoxide dismutase (Oxis Research)”, the “effect on AAV2 transduction” value in the assay with AAV2 [1] (endosomal loading with purified SOD1, absence or presence of proteasome inhibitors) is “failed to alter”.

With `OO` [H2O2, hydrogen peroxide], the “effect on AAV2 transduction” value with AAV2 [2] is “increase AAV2 transduction”. Moreover, the “number of cysteines that form sulfonic acid in the capsid” value on AAV2 capsid [3] was < 5%. Also, the “tryptic digestion of AAV2 virions after pre-treatment” value at AAV2 capsid [4] is recorded as “significantly enhanced tryptic digestion”. Further, at AAV2 capsid PLA2, the “PLA2 activity of H2O2-treated virions” value is “greater than that seen following partial virion heat denaturation” and the “optimal concentration of H2O2 for PLA2 activation” value amounted to 100 nM.

For `C=C(C)[C@H]1Cc2c(ccc3c2O[C@@H]2COc4cc(OC)c(OC)cc4[C@@H]2C3=O)O1` [rotenone], the “effect on AAV2 transduction” value with AAV2 [1] (setting [9]) is listed as “did not significantly affect”.

On to `CC(=O)O.CNC(=N)NCCC[C@H](N)C(=O)O` [L-NMMA, N^G-monomethyl-L-arginine acetate], for which the “effect on AAV2 transduction” value in the assay with AAV2 [1] (setting [9]) is on record as “did not significantly affect”.

Regarding `CC(=O)N[C@@H](CS)C(=O)O` [NAC, N-acetyl-L-cysteine], the “effect on AAV2 transduction” value in the assay on AAV2 [2] was “inhibit transduction”.

With `c1ccc2c(c1)[I+]c1ccccc1-2` [DPI], the “inhibition of AAV2 transduction” value with AAV2 [1] (HeLa cells, absence of proteasome inhibitors, 16 hours post-infection) came to 100 fold; with AAV2 [1] (HeLa cells, presence of proteasome inhibitors, 16 hours post-infection) it was 1000 fold.

For antimycin A, in the assay with AAV2 [1] (setting [9]), the “effect on AAV2 transduction” value was “did not significantly affect”.

B1: catalase: purified bovine catalase (Sigma-Aldrich) loaded into endosomes to clear H2O2 (protein, UniProt P00432 2-527, looked up)
Catalase: ADNRDPASDQMKHWKEQRAAQKPDVLTTGGGNPVGDKLNSLTVGPRGPLLVQDVVFTDEMAHFDRERIPERVVHAKGAGAFGYFEVTHDITRYSKAKVFEHIGKRTPIAVRFSTVAGESGSADTVRDPRGFAVKFYTEDGNWDLVGNNTPIFFIRDALLFPSFIHSQKRNPQTHLKDPDMVWDFWSLRPESLHQVSFLFSDRGIPDGHRHMNGYGSHTFKLVNANGEAVYCKFHYKTDQGIKNLSVEDAARLAHEDPDYGLRDLFNAIATGNYPSWTLYIQVMTFSEAEIFPFNPFDLTKVWPHGDYPLIPVGKLVLNRNPVNYFAEVEQLAFDPSNMPPGIEPSPDKMLQGRLFAYPDTHRHRLGPNYLQIPVNCPYRARVANYQRDGPMCMMDNQGGAPNYYPNSFSAPEHQPSALEHRTHFSGDVQRFNSANDDNVTQVRTFYLKVLNEEQRKRLCENIAGHLKDAQLFIQKKAVKNFSDVHPEYGSRIQALLDKYNEEKPKNAVHTYVQHGSHLSAREKANL
As to B1, the “effect on ability of proteasome inhibitors to enhance AAV2 transduction” value with AAV2 [5] (40 μM LLnL and 5 μM doxorubicin) was “completely abolished”; in the assay with AAV2 [1] (HeLa cells, 40 μM LLnL and 5 μM doxorubicin) it was “completely abolished”. Also, the “effect on AAV2 transduction (luciferase transgene expression)” value with AAV2 [5] (1 mg/mL catalase endosomal loading) is given as “significantly inhibited”; in the assay with AAV2 [1] (HeLa cells, 1 mg/mL catalase endosomal loading), “significantly inhibited”. Also, the “effect on Nox activity in the endosomal compartment” value in the assay with NADPH oxidase was “did not affect”. For the same molecule, in the assay on AAV2 [6], the “inhibition of viral escape from endosomes” value is listed as “about 3 fold”. Further, in the assay with AAV2 [7] (1 mg/mL catalase), the “effect on viral uptake” value is on record as “not due to impaired viral uptake”. The “effect on viral accumulation in the endosomal compartment” value with AAV2 [7] (20 minutes following infection, catalase 1 mg/mL) was “did not affect”. Also, the entries for the “ability of catalase loading to inhibit viral transduction” value with AAV2 [1] (catalase added by 30 minutes post-infection) and with AAV2 [1] (catalase added by 60 minutes post-infection) were “significantly declined” and “completely absent”, respectively. Moreover, the “decrease of rAAV2 transduction by catalase loading” value in the assay on AAV2 [1] (endosomal catalase loading, cell type not stated in b12) is listed as “about 80 fold”. Further, the “effect on AAV2 transduction” value is listed as “inhibited transduction” in the assay with AAV2 [8] (Nox1+/+ and Nox1-/- PMDFs, baseline and proteasome inhibitor induced); “did not significantly alter” in the assay with AAV2 [8] (Nox2-/- PMDFs).
